Legend:
[1] = molecular target: GFP-CaV2.2 K-R-HA (rabbit) (UniProt Q05152)
[2] = molecular target: GFP-CaV2.2-HA (rabbit) (UniProt Q05152)

Substance: CaVβ1b-GFP (from UniProt P54283 1-597) (natural protein)
- Gmax (whole cell conductance) from Boltzmann fits, whole cell patch clamp of tsA-201 cells with CaVα2δ-1, 1 mM Ba2+ [1]: 4.5 nS/pF
- IBa current density at +5 mV, whole cell patch clamp of tsA-201 cells with CaVα2δ-1, 1 mM Ba2+ [1]: 148 pA/pF
- V50 of activation from Boltzmann fits of current density-voltage relationships, whole cell patch clamp of tsA-201 cells with CaVα2δ-1, 1 mM Ba2+ [1]: 1.3 mV
- Gmax (whole cell conductance) from Boltzmann fits, whole cell patch clamp of tsA-201 cells with CaVα2δ-1, 1 mM Ba2+ [2]: 7.7 nS/pF
- IBa current density at +5 mV, whole cell patch clamp of tsA-201 cells with CaVα2δ-1, 1 mM Ba2+ [2]: 277 pA/pF
- V50 of activation from Boltzmann fits of current density-voltage relationships, whole cell patch clamp of tsA-201 cells with CaVα2δ-1, 1 mM Ba2+ [2]: -4.7 mV

— paper PMC5034038
